The target in test [1] is T1, truncated EGFR (EGFRt) (human, UniProt P00533 334-668).
T1 construct: Expressed alone on T cells as the control without a CAR; also called huEGFRt; EGFRt marker
Briefly: flow cytometry, titration of biotinylated soluble human FcγR1 + SA-PE on T cells. (Flow cytometry measures light scatter and fluorescence of single cells or particles in a stream.)

Test [2] concerns the target T1, truncated EGFR (EGFRt). Briefly: flow cytometry, biotinylated soluble FcγR + SA-PE on T cells. As for the experimental part:
Antibodies and Flow Cytometry. Fluorochrome-conjugated isotype controls, anti-CD3, anti-CD4, anti-CD8, anti-CD45 and streptavidin were obtained from BD Biosciences (San Jose, Calif.). Biotinylated anti-Fc was purchased from Jackson ImmunoResearch Laboratories, Inc. (West Grove, Pa.). Generation of biotinylated-cetuximab was previously described (Wang et al. 2011a). […] The percentage of immunofluorescent cells were analyzed by a FACScalibur system (BD Biosciences), and the percentage of cells in a region of analysis were calculated using FCS Express V3 (De Novo Software, CA, USA).
To determine the efficacy of the different mutations/deletion in the CAR to affect FcR binding, flow cytometric analysis was performed using various human and murine biotinylated soluble FcγRs, and PE-streptavidin (SA-PE) to detect the binding of the FcγRs to the different cell populations.

B1: biotinylated soluble human Fc gamma receptor 1 (receptor, UniProt P12314 16-288, looked up)
chain: QVDTTKAVITLQPPWVSVFQEETVTLHCEVLHLPGSSSTQWFLNGTATQTSTPSYRITSASVNDSGEYRCQRGLSGRSDPIQLEIHRGWLLLQVSSRVFTEGEPLALRCHAWKDKLVYNVLYYRNGKAFKFFHWNSNLTILKTNISHNGTYHCSGMGKHRYTSAGISVTVKELFPAPVLNASVTSPLLEGNLVTLSCETKLLLQRPGLQLYFSFYMGSKTLRGRNTSSEYQILTARREDSGLYWCEAATEDGNVLKRSPELELQVLGLQLPTP
modifications: biotinylated
notes: Bought reagent; also called huFcγR1; human FcγR1
On to B1, for which the binding result with truncated EGFR (EGFRt) [1] is “no binding”.

B2: biotinylated soluble human FcγR2a (receptor, UniProt P12318 34-218, looked up)
chain: QAAAPPKAVLKLEPPWINVLQEDSVTLTCQGARSPESDSIQWFHNGNLIPTHTQPSYRFKANNNDSGEYTCQTGQTSLSDPVHLTVLSEWLVLQTPHLEFQEGETIMLRCHSWKDKPLVKVTFFQNGKSQKFSHLDPTFSIPQANHSHSGDYHCTGNIGYTLFSSKPVTITVQVPSMGSSSPMGI
modifications: biotinylated
notes: Bought reagent; also called huFcγR2a; Hu R2a
With B2, in the test with truncated EGFR (EGFRt) [2], the binding result is “no binding”.

B3: biotinylated soluble murine FcγR2b (receptor, UniProt P08101 30-207, looked up)
chain: THDLPKAVVKLEPPWIQVLKEDTVTLTCEGTHNPGNSSTQWFHNGRSIRSQVQASYTFKATVNDSGEYRCQMEQTRLSDPVDLGVISDWLLLQTPQLVFLEGETITLRCHSWRNKLLNRISFFHNEKSVRYHHYSSNFSIPKANHSHSGDYYCKGSLGRTLHQSKPVTITVQGPKSSR
modifications: biotinylated
notes: Bought reagent; also called muFcγR2b; Mu R2b
Turning to B3, in the test with truncated EGFR (EGFRt) [2], the binding result was “no binding”.

B4: biotinylated soluble murine FcγR1 (receptor, UniProt P26151 25-297, looked up)
chain: EVVNATKAVITLQPPWVSIFQKENVTLWCEGPHLPGDSSTQWFINGTAVQISTPSYSIPEASFQDSGEYRCQIGSSMPSDPVQLQIHNDWLLLQASRRVLTEGEPLALRCHGWKNKLVYNVVFYRNGKSFQFSSDSEVAILKTNLSHSGIYHCSGTGRHRYTSAGVSITVKELFTTPVLRASVSSPFPEGSLVTLNCETNLLLQRPGLQLHFSFYVGSKILEYRNTSSEYHIARAEREDAGFYWCEVATEDSSVLKRSPELELQVLGPQSSAP
modifications: biotinylated
notes: Bought reagent; also called muFcγR1; Mu FcγR1
For B4, the binding result with truncated EGFR (EGFRt) [2] is reported as “no binding”.

B5: biotinylated soluble human FcγR2b (receptor, UniProt P31994 43-217, looked up)
chain: TPAAPPKAVLKLEPQWINVLQEDSVTLTCRGTHSPESDSIQWFHNGNLIPTHTQPSYRFKANNNDSGEYTCQTGQTSLSDPVHLTVLSEWLVLQTPHLEFQEGETIVLRCHSWKDKPLVKVTFFQNGKSKKFSRSDPNFSIPQANHSHSGDYHCTGNIGYTLYSSKPVTITVQAP
modifications: biotinylated
notes: Bought reagent; also called huFcγR2b; Hu R2b
With B5, in the test with truncated EGFR (EGFRt) [2], the binding result is listed as “no binding”.

The values are drawn from patent US20220372164A1 (CITY OF HOPE, published 2022).
